Source: patent US20100215656A1

Legend:
CD22 (human) = CD22 (human) (UniProt P20273); assay: cell-based or functional assay
mesothelin = mesothelin (UniProt Q13421); assay: cell-based or functional assay
UniProt Q13421, sequence (Q13421 other isoform, or with tags, fused parts or gaps limits assumed): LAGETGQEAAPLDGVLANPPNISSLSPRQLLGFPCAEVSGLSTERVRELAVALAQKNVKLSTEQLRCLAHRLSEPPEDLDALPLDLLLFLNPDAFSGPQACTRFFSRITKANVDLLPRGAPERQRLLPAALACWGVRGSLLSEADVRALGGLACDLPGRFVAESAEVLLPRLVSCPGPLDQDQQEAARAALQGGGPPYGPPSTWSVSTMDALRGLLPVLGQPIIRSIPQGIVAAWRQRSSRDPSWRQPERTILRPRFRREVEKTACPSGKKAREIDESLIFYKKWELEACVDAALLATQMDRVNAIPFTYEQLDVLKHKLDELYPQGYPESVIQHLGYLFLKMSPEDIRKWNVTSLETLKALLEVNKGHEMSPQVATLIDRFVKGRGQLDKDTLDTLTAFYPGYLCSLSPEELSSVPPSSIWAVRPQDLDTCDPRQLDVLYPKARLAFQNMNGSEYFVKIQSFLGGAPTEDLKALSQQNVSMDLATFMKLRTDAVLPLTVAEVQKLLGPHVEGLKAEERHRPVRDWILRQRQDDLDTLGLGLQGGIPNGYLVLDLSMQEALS

UniProt P20273, sequence (P20273 20-847): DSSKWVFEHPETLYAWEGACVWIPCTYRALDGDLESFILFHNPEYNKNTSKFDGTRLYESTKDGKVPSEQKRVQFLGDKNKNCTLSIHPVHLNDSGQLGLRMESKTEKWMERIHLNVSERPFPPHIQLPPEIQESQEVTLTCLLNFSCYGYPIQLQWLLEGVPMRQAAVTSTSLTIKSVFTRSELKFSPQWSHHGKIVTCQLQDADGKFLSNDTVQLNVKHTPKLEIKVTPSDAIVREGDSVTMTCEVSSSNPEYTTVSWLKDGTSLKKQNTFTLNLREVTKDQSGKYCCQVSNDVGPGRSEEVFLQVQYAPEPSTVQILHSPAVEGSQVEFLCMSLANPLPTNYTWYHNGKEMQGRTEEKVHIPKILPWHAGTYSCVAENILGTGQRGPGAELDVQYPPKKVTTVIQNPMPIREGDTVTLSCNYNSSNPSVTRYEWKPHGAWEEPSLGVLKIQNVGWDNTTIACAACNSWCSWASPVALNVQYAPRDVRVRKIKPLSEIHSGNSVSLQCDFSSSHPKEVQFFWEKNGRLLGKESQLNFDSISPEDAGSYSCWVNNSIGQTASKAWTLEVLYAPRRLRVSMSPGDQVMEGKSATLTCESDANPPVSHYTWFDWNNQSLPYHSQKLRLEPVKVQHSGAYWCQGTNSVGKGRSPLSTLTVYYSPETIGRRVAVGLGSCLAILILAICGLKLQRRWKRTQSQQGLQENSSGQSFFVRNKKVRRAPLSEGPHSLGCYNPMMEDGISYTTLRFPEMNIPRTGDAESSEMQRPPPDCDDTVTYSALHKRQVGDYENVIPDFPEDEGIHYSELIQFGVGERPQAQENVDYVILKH

Substance: HA22-LR (anti-CD22 dsFv of HA22 fused to the 25-kDa lysosome-resistant PE fragment, PE25 / PE-LR)
- Relative Activity (against HA22) on CA46 cells (CD22 (human)): 1.15
- Relative Activity (against HA22) on Daudi cells (CD22 (human)): 1.12
- Relative Activity (against HA22) on KOPN-8 cells (CD22 (human)): 0.22
- Relative Activity (against HA22) on Raji cells (CD22 (human)): 0.49
- Relative Activity (against HA22) on Ramos cells (CD22 (human)): 0.91
- Relative Activity (against HA22) on WSU-CLL cells (CD22 (human)): 2.12
- Relative Activity (against HA22), cell death, CLL #1 (CD22 (human)): 16.2
- Relative Activity (against HA22), cell death, CLL #2 (CD22 (human)): 7.65
- Relative Activity (against HA22), cell death, HCL #2 (CD22 (human)): 0.08
- Relative Activity (against HA22), cell death, HCL #3 (CD22 (human)): 1.39
- Relative Activity (against HA22), protein synthesis, CLL #1 (CD22 (human)): > 210
- Relative Activity (against HA22), protein synthesis, CLL #2 (CD22 (human)): > 16.8
- Relative Activity (against HA22), protein synthesis, CLL #3 (CD22 (human)): 2.07
- Relative Activity (against HA22), protein synthesis, CLL #4 (CD22 (human)): 51.8
- Relative Activity (against HA22), protein synthesis, CLL #5 (CD22 (human)): 2.16
- Relative Activity (against HA22), protein synthesis, HCL #1 (CD22 (human)): 0.88
- Relative Activity (against HA22), protein synthesis, HCL #2 (CD22 (human)): 0.14
- Relative Activity (against HA22), protein synthesis, HCL #3 (CD22 (human)): > 1.76
- inhibition of protein synthesis at 1 ng/ml, patient cells CLL #2 (CD22 (human)): 55%

Substance: SS1-PE-LR (antibody SS1 fused to the PE used in HA22-LR)
- IC50 (ng/ml), cytotoxicity on A431/K5 cells (mesothelin): 1.19 ng/mL
- IC50 (ng/ml), cytotoxicity on A1847 cells (*Incomplete cell killing) (mesothelin): 4.24 ng/mL
- IC50 (ng/ml), cytotoxicity on HAY cells (mesothelin): 1.22 ng/mL
- IC50 (ng/ml), cytotoxicity on KB31 cells (*Incomplete cell killing) (mesothelin): > 1000 ng/mL
- IC50 (ng/ml), cytotoxicity on L55 cells (mesothelin): 3.87 ng/mL
- IC50 (ng/ml), cytotoxicity on OVCAR-8 cells (*Incomplete cell killing) (mesothelin): 4.29 ng/mL
- Relative Activity (against the PE38 immunotoxin) on A431/K5 cells (mesothelin): 0.17
- Relative Activity (against the PE38 immunotoxin) on A1847 cells (mesothelin): 0.96
- Relative Activity (against the PE38 immunotoxin) on HAY cells (mesothelin): 3.72
- Relative Activity (against the PE38 immunotoxin) on KB31 cells (fold decrease) (mesothelin): > 200
- Relative Activity (against the PE38 immunotoxin) on L55 cells (mesothelin): 1.23
- Relative Activity (against the PE38 immunotoxin) on OVCAR-8 cells (mesothelin): 0.54

Substance: SS1P (antibody SS1 fused to PE38)
- IC50 (ng/ml), cytotoxicity on A431/K5 cells (mesothelin): 0.2 ng/mL
- IC50 (ng/ml), cytotoxicity on A1847 cells (mesothelin): 4.06 ng/mL
- IC50 (ng/ml), cytotoxicity on HAY cells (mesothelin): 4.54 ng/mL
- IC50 (ng/ml), cytotoxicity on KB31 cells (mesothelin): 5.15 ng/mL
- IC50 (ng/ml), cytotoxicity on L55 cells (mesothelin): 4.77 ng/mL
- IC50 (ng/ml), cytotoxicity on OVCAR-8 cells (mesothelin): 2.32 ng/mL
